{"source": "patent US20050282190", "about": "“Modular design and construction of nucleic acid molecules, aptamer-derived nucleic acid constructs, RNA scaffolds, their expression, and methods of use” (published 2005)", "binders": {"B1": {"name": "AptTBP-12 (ssRNA)", "RNA": "GGGAGAAUUCAACUGCCAUCUAGGCGCCGUGCCCGGUUUGGAUAGGCACAUAAGACGCCGACAAAGAAACCAACCAGUACUACAAGCUUCUGGACUCGGU"}, "B2": {"name": "m12 (mini AptTBP-12) (ssRNA)", "RNA": "GGCGCCGUGCCCGGUUUGGAUAGGCACAUAAGACGCC"}, "B3": {"name": "S1 con (ssRNA)", "RNA": "GGGACCGACCAGAAUCAUGCAAGUGCGUAAGAUAGUCGCGGGCCGGG"}, "B4": {"name": "S1 (ssRNA)", "RNA": "GGGAGUCGACCGACCAGAAUCAUGCAAGUGCGUAAGAUAGUCGCGGGCCGGGGGCGUAUUAUGUGCGUCUACAUCUAGACUCAU"}, "B5": {"name": "RA1-HSF (ssRNA)", "RNA": "GGGAGAAUUCAACUGCCAUCUAGGCAUCGCGAUACAAAAUUAAGUUGAACGCGAGUUCUCCAUCUAGUACUACAAGCUUCUGGACUCGGU"}, "B6": {"name": "aptabody B-R (ssRNA)", "RNA": "GGGAUCGCCGCGGCUGGUCAACCAGGCGACCGCCGCGGCCACAGCGGUGGGCUGGUCAACCAGGCGACCGCCCACCAGCGUUCCCGGAUCCGUGACGUCAACACGGUCCCGGACGUGUUGACGUCCAUACUCCUCAACACGGUCCCGGACGUGUUGAGGAGGCGGAUUC"}, "B7": {"name": "aptabody B-S (ssRNA)", "RNA": "GGGAUCGCCGCGGCUGGUCAACCAGGCGACCGCCGCGGCCACAGCGGUGGGCUGGUCAACCAGGCGACCGCCCACCAGCGUUCCCGGAUCCGUGACCGACCAGAAUCAUGCAAGUGCGUAAGAUAGUCGCGGGUCGGGUCAUACUCCCGGCCAGAAUCAUGCAAGUGCGUAAGAUAGUCGCGGGCCGGGAGGCGGAUUC"}, "B8": {"name": "AptTBP-101 (ssRNA)", "RNA": "GGGAGAAUUCAACUGCCAUCUAGGCAGCCAAGGUAAACAAUUCAGUUAGUGGAAUGAAACUGCCCAACACCAGAAGUACUACAAGCUUCUGGACUCGGU"}, "B9": {"name": "aptabody T-S (ssRNA)", "RNA": "GGGAUCGCCGCCGAGCCCGGGAGCUCGGCGGCCACAGCGGUGGGAGCCCGGGAGCUCCCACCAGCGUUCCCGGAUCCGUGACCGACCAGAAUCAUGCAAGUGCGUAAGAUAGUCGCGGGUCGGGUCAUACUCCCGGCCAGAAUCAUGCAAGUGCGUAAGAUAGUCGCGGGCCGGGAGGCGGAUUC"}}, "key": {"[1]": {"biological_target": "T1, TBP (TATA-binding protein) (UniProt P13393 P13393:1-240)", "T1 sequence": "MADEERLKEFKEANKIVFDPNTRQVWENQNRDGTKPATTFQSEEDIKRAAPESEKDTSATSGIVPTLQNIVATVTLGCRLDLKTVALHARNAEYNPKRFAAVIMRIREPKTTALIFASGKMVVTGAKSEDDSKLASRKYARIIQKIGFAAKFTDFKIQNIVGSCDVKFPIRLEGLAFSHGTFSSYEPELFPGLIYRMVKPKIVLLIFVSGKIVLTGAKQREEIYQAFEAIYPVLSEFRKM", "experiment": "filter; AptTBP-101 Kd stated to be similar to that of AptTBP-12 complex; binds DNA-binding surface and competes with TATA-DNA (p252)"}, "[2]": {"biological_target": "T1, TBP (TATA-binding protein)", "experiment": "reduced form fully retained binding; used to mask DNA-binding surface of TBP"}, "[3]": {"biological_target": "T2, Streptavidin (UniProt P22629 P22629:25-183)", "T2 sequence (P22629 25-183, one chain of several)": "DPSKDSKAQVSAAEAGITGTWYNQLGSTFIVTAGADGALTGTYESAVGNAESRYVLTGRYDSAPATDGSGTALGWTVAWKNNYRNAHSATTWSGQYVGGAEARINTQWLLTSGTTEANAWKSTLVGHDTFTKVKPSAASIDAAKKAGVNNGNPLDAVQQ", "experiment": "EMSA; reduced S1 retains full activity", "conditions": "tags: ImmunoPure streptavidin, Pierce; HRP or Texas Red conjugates in immunoassays; chain copies: 4", "description": "All binding assays were performed in 20 μl volume. The binding buffer contains 50 mM Tris-Cl (pH 7.4), 100 mM NaCl, 15 mM MgCl₂, 10% glycerol, and 1 mM DTT. A typical binding assay using labeled RNA contains about 20 fmole of ³²P-labeled RNA probe and different amounts (1-10 pmole, indicated by L and H in FIG. 5B) of protein or non-labled RNA. The reactions were allowed to equilibrate for 15-20 minutes at ambient temperature before being subjected to EMSA.\nFor BBS-B52 interaction, EMS assay was performed at 4° C. The binding reaction mixtures were set at 4° C. for 5-10 minutes before being loaded onto a 2.5% agarose gel in ¼ TBE buffer. For the streptavidin aptamers and the TAR aptamers, EMSA were performed at ambient temperature with 6% or 12% native polyacrylamide gel run in TG buffer (25 mM Tris base, 200 mM glycine, and 5 mM MgCl₂)."}, "[4]": {"biological_target": "T2, Streptavidin", "experiment": "original aptamer used as reference in deletion analysis", "conditions": "tags: ImmunoPure streptavidin, Pierce; HRP or Texas Red conjugates in immunoassays; chain copies: 4"}, "[5]": {"biological_target": "T3, HSF (heat shock factor) (UniProt P22813 P22813:1-691)", "T3 sequence": "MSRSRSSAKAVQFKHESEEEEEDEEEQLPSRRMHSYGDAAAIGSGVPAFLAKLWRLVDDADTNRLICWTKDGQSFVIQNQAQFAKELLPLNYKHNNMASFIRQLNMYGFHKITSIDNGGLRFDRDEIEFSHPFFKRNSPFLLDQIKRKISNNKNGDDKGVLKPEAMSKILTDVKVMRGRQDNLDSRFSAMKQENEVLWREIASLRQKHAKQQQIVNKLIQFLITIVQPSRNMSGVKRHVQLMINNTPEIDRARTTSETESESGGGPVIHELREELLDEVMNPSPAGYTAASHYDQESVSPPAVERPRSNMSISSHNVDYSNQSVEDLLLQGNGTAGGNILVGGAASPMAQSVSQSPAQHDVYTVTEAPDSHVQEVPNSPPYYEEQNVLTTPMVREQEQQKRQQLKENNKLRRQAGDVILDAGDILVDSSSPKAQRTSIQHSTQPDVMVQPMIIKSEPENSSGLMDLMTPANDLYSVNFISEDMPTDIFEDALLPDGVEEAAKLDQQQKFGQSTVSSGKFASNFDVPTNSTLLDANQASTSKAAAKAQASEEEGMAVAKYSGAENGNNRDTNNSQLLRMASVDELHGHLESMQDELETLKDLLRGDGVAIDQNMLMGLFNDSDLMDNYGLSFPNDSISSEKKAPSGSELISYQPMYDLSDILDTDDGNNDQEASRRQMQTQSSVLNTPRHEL", "experiment": "EMSA; affinity measured, value only in figure", "conditions": "tags: His; three-way junction"}, "[6]": {"biological_target": "T4, B52 RRMs (two RNA recognition motifs) (UniProt P26686 P26686:4-188)", "T4 sequence (P26686 other isoform, or with tags, fused parts or gaps)": "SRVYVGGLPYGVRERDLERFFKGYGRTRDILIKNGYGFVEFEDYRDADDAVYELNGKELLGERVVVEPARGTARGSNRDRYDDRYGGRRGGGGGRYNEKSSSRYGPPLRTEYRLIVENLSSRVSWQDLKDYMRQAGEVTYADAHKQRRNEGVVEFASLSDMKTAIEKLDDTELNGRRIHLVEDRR", "experiment": "Western blot with B-R then T-S then HRP-streptavidin", "conditions": "tags: His; two fused three-way junctions, two BBS and two R-06 modules", "description": "(§1) Western blot analysis for antibodies was performed according to a standard protocol (Harlow et al., Using Antibodies: A Laboratory Manual. Cold Spring Harbor, Cold Spring Harbor Laboratory Press (1999), which is hereby incorporated by reference in its entirety). For the aptabodies, proteins were separated on 8% SDS-PAGE and transferred to nitrocellulose membrane according to the aforementioned standard protocol. Subsequent steps were also identical except the following substitutions. The RNA aptabody B-S (FIG. 5A) (10 μg/ml) and horseradish peroxidase conjugated streptavidin (1 μg/ml) were used to replace the primary and secondary antibodies. […]\n(§2) First, a Western blot analysis was conducted with the aptabodies and a monoclonal antibody against B52. The sample to be analyzed contained a full-length B52 produced from a baculovirus expression system, a His-tagged B52 deletion construct that contained the two RNA recognition motifs recognized by the aptamers and the monoclonal antibody By32 (Champlin et al., “Characterization of a Drosophila Protein Associated with Boundaries of Transcriptionally Active Chromatin,” Genes and Development 5:1611-1621 (1991), which is hereby incorporated by reference in its entirety), and a His-tagged Drosophila heat shock factor as control. […]"}, "[7]": {"biological_target": "T5, B52 (SR protein), full-length (UniProt P26686 P26686:2-350)", "T5 sequence (P26686 other isoform, or with tags, fused parts or gaps)": "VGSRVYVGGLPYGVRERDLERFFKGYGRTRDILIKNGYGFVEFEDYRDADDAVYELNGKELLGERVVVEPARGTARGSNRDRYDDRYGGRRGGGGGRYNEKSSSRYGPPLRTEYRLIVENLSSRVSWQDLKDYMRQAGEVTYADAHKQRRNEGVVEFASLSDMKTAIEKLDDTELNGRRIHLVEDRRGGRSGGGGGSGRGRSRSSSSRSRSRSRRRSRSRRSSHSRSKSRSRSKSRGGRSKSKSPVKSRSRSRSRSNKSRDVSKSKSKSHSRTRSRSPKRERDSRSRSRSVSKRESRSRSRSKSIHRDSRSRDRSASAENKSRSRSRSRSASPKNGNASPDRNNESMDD", "experiment": "Western blot with B-R then T-S then HRP-streptavidin", "conditions": "tags: baculovirus expressed; two fused three-way junctions, two BBS and two R-06 modules", "description": "as §1, §2"}, "[8]": {"biological_target": "T4, B52 RRMs (two RNA recognition motifs)", "experiment": "Western blot and dot blot; as low as 1 ng protein detected", "conditions": "tags: His; two fused three-way junctions, two BBS and two S1 aptamers", "description": "as §1, §2"}, "[9]": {"biological_target": "T2, Streptavidin", "experiment": "streptavidin conjugates as secondary reagent in Western, dot blot and immunofluorescence", "conditions": "tags: ImmunoPure streptavidin, Pierce; HRP or Texas Red conjugates in immunoassays; chain copies: 4; two fused three-way junctions, two BBS and two S1 aptamers"}, "[10]": {"biological_target": "T5, B52 (SR protein), full-length", "experiment": "Western blot with HRP-streptavidin; 15 mM MgCl2", "conditions": "tags: baculovirus expressed; two fused three-way junctions, two BBS and two S1 aptamers", "description": "as §1, §2"}, "[11]": {"biological_target": "T1, TBP (TATA-binding protein)", "experiment": "filter", "conditions": "three-way junction with asymmetric internal loop and apical loop"}, "[12]": {"biological_target": "T2, Streptavidin", "experiment": "T-S secondary aptabody detected by HRP-streptavidin", "conditions": "tags: ImmunoPure streptavidin, Pierce; HRP or Texas Red conjugates in immunoassays; chain copies: 4; two fused three-way junctions, two TAR-Mal and two S1 modules", "description": "as §1, §2"}}}
{"binder": "B1", "values": [{"measurement": "Kd", "setting": "[1]", "value": "~2", "unit": "nM"}]}
{"binder": "B2", "values": [{"measurement": "binding result", "setting": "[2]", "value": "binds"}]}
{"binder": "B3", "values": [{"measurement": "binding result", "setting": "[3]", "value": "binds"}]}
{"binder": "B4", "values": [{"measurement": "binding result", "setting": "[4]", "value": "binds"}]}
{"binder": "B5", "values": [{"measurement": "binding result", "setting": "[5]", "value": "binds"}]}
{"binder": "B6", "values": [{"measurement": "binding result", "setting": "[6]", "value": "binds"}, {"measurement": "binding result", "setting": "[7]", "value": "binds"}]}
{"binder": "B7", "values": [{"measurement": "binding result", "setting": "[8]", "value": "binds"}, {"measurement": "binding result", "setting": "[9]", "value": "binds"}, {"measurement": "binding result", "setting": "[10]", "value": "binds"}]}
{"binder": "B8", "values": [{"measurement": "Kd", "setting": "[11]", "value": 2, "unit": "nM"}]}
{"binder": "B9", "values": [{"measurement": "binding result", "setting": "[12]", "value": "binds"}]}
